Positions count from the first letter of the chain named. Bounds are passed on as bounds.

This passage reports Kd, koff and kon results from PMC10663500, “High-throughput analysis system of interaction kinetics for data-driven antibody design” (Scientific Reports, 2023).

First the molecules themselves.
B1: toripalimab Fab L.R59Y (Fab, V domains shown)
VH: QGQLVQSGAEVKKPGASVKVSCKASGYTFTDYEMHWVRQAPIHGLEWIGVIESETGGTAYNQKFKGRVTITADKSTSTAYMELSSLRSEDTAVYYCAREGITTVATTYYWYFDVWGQGTTVTVSS
VL: DVVMTQSPLSLPVTLGQPASISCRSSQSIVHSNGNTYLEWYLQKPGQSPQLLIYKVSNYFSGVPDRFSGSGSGTDFTLKISRVEAEDVGVYYCFQGSHVPLTFGQGTKLEIK
notes: as the heavy chain of Sm3; light chain of Sm3 with this change; numbers count from the chain's first residue; source: Brevibacillus, culture supernatant (ammonium sulfate precipitate); not shown: 6xHis, C-terminal, kept; 6xHN, C-terminal, kept
B2: toripalimab Fab L.V99H (Fab, V domains shown)
VH: B1 VH
VL: B1 VL with Y59R, V99H
notes: as for B1
B3: toripalimab Fab L.S61Y (Fab, V domains shown)
VH: B1 VH
VL: B1 VL with Y59R, S61Y
notes: as for B1
B4: toripalimab Fab H.I51A (Fab, V domains shown)
VH: B1 VH with I51A
VL: B1 VL with Y59R
notes: heavy chain of Sm3 with this change; numbers count from the chain's first residue; as the light chain of Sm3; source: Brevibacillus, culture supernatant (ammonium sulfate precipitate); not shown: 6xHis, C-terminal, kept; 6xHN, C-terminal, kept
B5: toripalimab Fab L.F60A (Fab, V domains shown)
VH: B1 VH
VL: B1 VL with Y59R, F60A
notes: as for B1
B6: toripalimab Fab L.V99A (Fab, V domains shown)
VH: B1 VH
VL: B1 VL with Y59R, V99A
notes: as for B1
B7: toripalimab Fab L.V99D (Fab, V domains shown)
VH: B1 VH
VL: B1 VL with Y59R, V99D
notes: as for B1
B8: toripalimab Fab L.F60Y (Fab, V domains shown)
VH: B1 VH
VL: B1 VL with Y59R, F60Y
notes: as for B1
B9: toripalimab Fab L.H98Y (Fab, V domains shown)
VH: B1 VH
VL: B1 VL with Y59R, H98Y
notes: as for B1
B10: toripalimab Fab L.V99E (Fab, V domains shown)
VH: B1 VH
VL: B1 VL with Y59R, V99E
notes: as for B1
B11: toripalimab Fab L.F94A (Fab, V domains shown)
VH: B1 VH
VL: B1 VL with Y59R, F94A
notes: as for B1
B12: toripalimab Fab L.Q95A (Fab, V domains shown)
VH: B1 VH
VL: B1 VL with Y59R, Q95A
notes: as for B1
B13: toripalimab Fab L.V99I (Fab, V domains shown)
VH: B1 VH
VL: B1 VL with Y59R, V99I
notes: as for B1
B14: toripalimab Fab L.H98A (Fab, V domains shown)
VH: B1 VH
VL: B1 VL with Y59R, H98A
notes: as for B1
B15: toripalimab Fab L.S97A (Fab, V domains shown)
VH: B1 VH
VL: B1 VL with Y59R, S97A
notes: as for B1
B16: toripalimab Fab L.F94Y (Fab, V domains shown)
VH: B1 VH
VL: B1 VL with Y59R, F94Y
notes: as for B1
B17: toripalimab Fab L.V99L (Fab, V domains shown)
VH: B1 VH
VL: B1 VL with Y59R, V99L
notes: as for B1
B18: toripalimab Fab L.S61A (Fab, V domains shown)
VH: B1 VH
VL: B1 VL with Y59R, S61A
notes: as for B1
B19: toripalimab Fab L.V99G (Fab, V domains shown)
VH: B1 VH
VL: B1 VL with Y59R, V99G
notes: as for B1
B20: toripalimab Fab L.V99K (Fab, V domains shown)
VH: B1 VH
VL: B1 VL with Y59R, V99K
notes: as for B1
B21: toripalimab Fab L.V99F (Fab, V domains shown)
VH: B1 VH
VL: B1 VL with Y59R, V99F
notes: as for B1

The target in one experiment is T1, human programmed cell death protein 1 (hPD-1) C93S (aa 24-167) (Homo sapiens, UniProt Q15116, C93S).
T1 construct: made as a fusion with a TEV site and human Fc; the Fc was cut off with TEV protease; source: Expi293F, purified (Protein A, TEV cleavage of Fc, SEC; monomer fractions); not shown: Fc (human), C-terminal, cleaved
T1 sequence (Q15116 24-167 C93S): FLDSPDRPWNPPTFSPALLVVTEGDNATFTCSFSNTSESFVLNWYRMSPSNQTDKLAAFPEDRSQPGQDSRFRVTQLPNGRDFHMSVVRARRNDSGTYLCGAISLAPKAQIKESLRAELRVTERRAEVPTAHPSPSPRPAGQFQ
The experiment can be described thus: SPR; Carterra LSA; Fab from the ammonium sulfate precipitate of the culture supernatant immobilised on a NiHC200M chip; hPD-1 (1-1024 nM) or mPD-1-Fc (4-1024 nM) as analyte, fourfold dilution series, no regeneration; HBS-EP pH 7.4, 25 °C; medians over the spots of a construct, KD = koff/kon. The conditions noted are these: one partner purified. The method, boiled down:
(§1)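 Fabs from Brevibacillus culture supernatants were ammonium sulfate-precipitated, redissolved in HBS-EP and captured in duplicate on a NiHC200M chip (Carterra LSA, 25 °C). Human PD-1 (1–1024 nM) or mouse PD-1-Fc (4–1024 nM) flowed as fourfold series without regeneration, with 10 min association and 5 min dissociation; unconfirmed binders were set to kon 10^3 […], koff 10^−2 s^−1. Rates came from kdka model fits (slow- or fast-dissociation settings, best fit); KD is koff/kon from per-construct medians.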
For orientation: Kd means the equilibrium constant for the complex coming apart. High values mean lower affinity, low ones higher affinity. One may read the koff as a measure of how fast the partners let go of each other. Higher therefore signals a short-lived complex. The kon is a measure of how fast the partners come together. The low end stands for slow association, the high end for fast association. B1: the Kd was below 0.356 nM, the koff is below 1e-05 s⁻¹ and the on-rate constant (kon) was 28100 M⁻¹ s⁻¹.
In the same order, the values of B2 are 23.1 nM, 0.000239 s⁻¹ and 10400 M⁻¹ s⁻¹.
As to B3, the Kd is below 0.5 nM, the koff was below 1e-05 s⁻¹ and the kon came to 20000 M⁻¹ s⁻¹.
In the same order, the values of B4 are 1.06 nM, 1.6e-05 s⁻¹ and 15100 M⁻¹ s⁻¹.
Molecule B5 returned a Kd below 0.669 nM, a dissociation rate constant (koff) below 1e-05 s⁻¹ and a kon of 14900 M⁻¹ s⁻¹.
As to B6, the Kd came out at 1.61 nM, the koff came to 3.6e-05 s⁻¹ and the kon is 22300 M⁻¹ s⁻¹.
In turn, B7 yielded a Kd of 1.62 nM, a koff of 1.8e-05 s⁻¹ and a kon of 11100 M⁻¹ s⁻¹.
Molecule B8 gave a Kd of 0.608 nM, a koff of 1.12e-05 s⁻¹ and a kon of 18400 M⁻¹ s⁻¹.
Taken in the same sequence, the figures for B9 were 0.737 nM, 1.34e-05 s⁻¹ and 18100 M⁻¹ s⁻¹.
B10 returned a Kd below 1.03 nM, an off-rate constant (koff) below 1e-05 s⁻¹ and a kon of 9690 M⁻¹ s⁻¹.
Turning to B11, the Kd is below 2.46 nM, the koff is below 1e-05 s⁻¹ and the kon was found to be 4060 M⁻¹ s⁻¹.
For the molecule B12, the affinity, expressed as Kd, was 2.28 nM; the koff stood at 4.22e-05 s⁻¹; the kon turned out to be 18500 M⁻¹ s⁻¹.
For B13, the dissociation constant (Kd) was below 0.7 nM, the koff was below 1e-05 s⁻¹ and the kon was 14300 M⁻¹ s⁻¹.
B14 registered a Kd below 0.436 nM, an off-rate constant (koff) below 1e-05 s⁻¹ and a kon of 22900 M⁻¹ s⁻¹.
B15 came in with a Kd of 1.88 nM, a koff of 4.49e-05 s⁻¹ and a kon of 23800 M⁻¹ s⁻¹.
With B16, the Kd is below 0.968 nM, the koff is below 1e-05 s⁻¹ and the kon was determined as 10300 M⁻¹ s⁻¹.
B17 yielded a Kd below 1.43 nM, a koff below 1e-05 s⁻¹ and a kon of 7020 M⁻¹ s⁻¹.
In the same order, the values of B18 are 1.39 nM, 2.72e-05 s⁻¹ and 19600 M⁻¹ s⁻¹.
Taken in the same sequence, the figures for B19 were 1.75 nM, 1.44e-05 s⁻¹ and 8230 M⁻¹ s⁻¹.
In the same order, the values of B20 are 30.7 nM, 0.000131 s⁻¹ and 4260 M⁻¹ s⁻¹.
B21: the Kd was 2.51 nM, the koff is 4.24e-05 s⁻¹ and the kon was found to be 16900 M⁻¹ s⁻¹.

The next experiment deals with T2, mouse programmed cell death protein 1 Fc fusion protein (mPD-1-Fc), mPD-1 C60S (aa 25-167) (Mus musculus, UniProt Q02242, stabilised).
T2 construct: not cleaved; source: Expi293F, purified (Protein A, SEC; dimeric fraction); not shown: Fc (human), C-terminal, kept
Described as above. The conditions noted are these: one partner purified. Summed up: as §1
On to B1, for which binding was characterised by a dissociation constant (Kd) of 213 nM, the koff is 0.00916 s⁻¹ and the kon stood at 43000 M⁻¹ s⁻¹.
Taken in the same sequence, the figures for B2 were 334 nM, 0.00991 s⁻¹ and 29600 M⁻¹ s⁻¹.
With B3, binding was characterised by a dissociation constant (Kd) of 103 nM, the koff came out at 0.0044 s⁻¹ and the on-rate constant (kon) was determined as 42500 M⁻¹ s⁻¹.
Consider B4, for which binding was characterised by a dissociation constant (Kd) of 630 nM, the koff was 0.04 s⁻¹ and the kon came out at 63500 M⁻¹ s⁻¹.
In the same order, the values of B5 are 182 nM, 0.00605 s⁻¹ and 33300 M⁻¹ s⁻¹.
The molecule B6 showed a dissociation constant (Kd) of 15.2 nM, a koff of 0.000353 s⁻¹ and a kon of 23300 M⁻¹ s⁻¹.
Take B7: the Kd was 19.8 nM, the koff was determined as 0.000759 s⁻¹ and the on-rate constant (kon) was 38300 M⁻¹ s⁻¹.
On to B8, for which the affinity, expressed as Kd, was 133 nM; the koff is 0.00463 s⁻¹; the kon is 34800 M⁻¹ s⁻¹.
Take B9: the Kd turned out to be 396 nM, the koff came out at 0.0148 s⁻¹ and the on-rate (kon) came out at 37400 M⁻¹ s⁻¹.
Taken in the same sequence, the figures for B10 were 201 nM, 0.00742 s⁻¹ and 36800 M⁻¹ s⁻¹.
In the case of B11, binding was put at a Kd of 177 nM, the koff was 0.000967 s⁻¹ and the kon came to 5460 M⁻¹ s⁻¹.
As for B12, binding was characterised by a dissociation constant (Kd) of 130 nM, the koff turned out to be 0.00506 s⁻¹ and the kon turned out to be 39000 M⁻¹ s⁻¹.
B13 displayed a Kd of 289 nM, a koff of 0.014 s⁻¹ and an on-rate (kon) of 48500 M⁻¹ s⁻¹.
As for B14, the affinity, expressed as Kd, was 120 nM; the koff worked out at 0.00523 s⁻¹; the kon amounted to 43600 M⁻¹ s⁻¹.
In the same order, the values of B15 are 678 nM, 0.0274 s⁻¹ and 40400 M⁻¹ s⁻¹.
Regarding B16, the equilibrium dissociation constant (Kd) came to 155 nM, the koff turned out to be 0.0129 s⁻¹ and the kon came out at 83200 M⁻¹ s⁻¹.
Taken in the same sequence, the figures for B17 were 407 nM, 0.00629 s⁻¹ and 15500 M⁻¹ s⁻¹.
B18 displayed a Kd of 103 nM, a koff of 0.00447 s⁻¹ and a kon of 43400 M⁻¹ s⁻¹.
B19 showed a Kd below 0.848 nM, a koff below 1e-05 s⁻¹ and a kon of 11800 M⁻¹ s⁻¹.
In the same order, the values of B20 are 285 nM, 0.00439 s⁻¹ and 15400 M⁻¹ s⁻¹.
In turn, B21 gave a Kd of 123 nM, a koff of 0.00104 s⁻¹ and a kon of 8450 M⁻¹ s⁻¹.
